How the values were obtained:
Details in all cases: Homo sapiens
[1] = substrate: O=c1ccc2nc3ccc(OP(=O)(O)O)cc3oc-2c1; test: (§1) Binding affinity to ALP (unknown origin) assessed as catalytic constant
[2] = substrate: O=c1ccc2nc3ccc(OCc4ccc(OP(=O)(O)O)cc4)cc3oc-2c1; test: as §1
[3] = substrate: O=c1ccc2nc3ccc(OP(=O)(O)O)cc3oc-2c1; test: (§2) Binding affinity to ALP (unknown origin) assessed as Kcat/Km
[4] = substrate: O=c1ccc2nc3ccc(OCc4ccc(OP(=O)(O)O)cc4)cc3oc-2c1; test: as §2
[5] = substrate: O=c1ccc2nc3ccc(OP(=O)(O)O)cc3oc-2c1; test: (§3) Binding affinity to ALP (unknown origin)
[6] = substrate: O=c1ccc2nc3ccc(OCc4ccc(OP(=O)(O)O)cc4)cc3oc-2c1; test: as §3

B1: Alkaline phosphatase, germ cell type (Homo sapiens), P10696 (protein)
chain: MQGPWVLLLLGLRLQLSLGIIPVEEENPDFWNRQAAEALGAAKKLQPAQTAAKNLIIFLGDGMGVSTVTAARILKGQKKDKLGPETFLAMDRFPYVALSKTYSVDKHVPDSGATATAYLCGVKGNFQTIGLSAAARFNQCNTTRGNEVISVMNRAKKAGKSVGVVTTTRVQHASPAGAYAHTVNRNWYSDADVPASARQEGCQDIATQLISNMDIDVILGGGRKYMFPMGTPDPEYPDDYSQGGTRLDGKNLVQEWLAKHQGARYVWNRTELLQASLDPSVTHLMGLFEPGDMKYEIHRDSTLDPSLMEMTEAALLLLSRNPRGFFLFVEGGRIDHGHHESRAYRALTETIMFDDAIERAGQLTSEEDTLSLVTADHSHVFSFGGYPLRGSSIFGLAPGKARDRKAYTVLLYGNGPGYVLKDGARPDVTESESGSPEYRQQSAVPLDGETHAGEDVAVFARGPQAHLVHGVQEQTFIAHVMAFAACLEPYTACDLAPRAGTTDAAHPGPSVVPALLPLLAGTLLLLGTATAP
B1 was tested, and the kcat [1] was 0.16 s⁻¹, the kcat [2] was 0.26 s⁻¹ and the kcat/Km [3] was 6.58 10^3/M/s. For the same protein, the kcat/Km [4] was 1.7 10^4/M/s, the Km [5] was 24.6 µM and the Km [6] was 15.3 µM.
